Results as given in patent publication US7897573B2, “Selective VPAC2 receptor peptide agonists” (priority 2005, dated 2011).
*1 amine or outer side, *2 acyl side, *3 side chain or, on linkers, in order; H or OH if unused. Primed or numbered codes have the meaning given here. [ ]: non-standard residue; d: D form. The star is where a group is joined. Tyr(OMe)(3) = Tyr, methoxy (Y(OMe)), COc1ccc(C[C@H](N[*:1])C(=O)[*:2])cc1; WPEG40K = not defined here; Orn = NCCC[C@H](N)C(=O)O; Abu = CC[C@H](N)C(=O)O; Hexanoyl = CCCCCC(=O)*; Aib = CC(C)(N)C(=O)O

Legend:
[1] = Rat serum stability study (DiscoveRx cAMP read-out on CHO-VPAC2 cells); details: EC50, 4° C./EC50, 37° C., values >100% may represent release of intact peptide from the PEG conjugate; for 24 h stab (%): 24 h in rat serum at 37° C.; for 72 h stab (%): 72 h in rat serum at 37° C.
Experimental: In order to determine the stability of VPAC2 receptor peptide agonists in rat serum, CHO-VPAC2 cells clone #6 (96 well plates/50,000 cells/well and 1 day culture), PBS 1× (Gibco), the peptides for the analysis in a 100 μM stock solution, rat serum from a sacrificed normal Wistar rat, aprotinin, and a DiscoveRx assay kit are obtained. The rat serum is stored at 4° C. until use and is used within two weeks.
The aliquot is stored with aprotinin at 4° C. The aliquot is stored without aprotinin at 37° C. The aliquots are incubated for 24 or 72 hours.
On Day 1, after incubation of the aliquots prepared on day 0 for 24 or 72 hours, an incubation buffer containing PBS+1.3 mM CaCl2, 1.2 mM MgCl2, 2 mM glucose, and 0.25 mM IBMX is prepared. A plate with 11 serial 5× dilutions of peptide for the 4° C. and 37° C. aliquot is prepared for each peptide studied. […] The plate(s) are washed with cells twice in incubation buffer. The plates are allowed to hold 50 μL incubation media per well for 15 minutes. 50 μL solution per well is transferred to the cells from the plate prepared with 11 serial 5× dilutions of peptide for the 4° C. and 37° C. aliquot for each peptide studied, using the maximal concentrations that are indicated by the primary screen, in duplicate. This step dilutes the peptide concentration by a factor of two. The cells are incubated at room temperature for 30 minutes. The supernatant is removed. 40 μL/well of the DiscoveRx antibody/extraction buffer is added. The cells are incubated on the shaker (300 rpm) for 1 hour. Normal procedure with the DiscoveRx kit is followed. cAMP standards are included in column 12. EC50 values are determined from the cAMP assay data.

Human VPAC1 Receptor = molecular target: T1, Human VPAC1 Receptor (Homo sapiens, UniProt P32241); assay: Filter binding assay, 125I-labeled VIP, membranes of cells transiently transfected with human VPAC1; details: 125I-labeled VIP tracer
T1 construct: expressed in transfected cells
T1 sequence (P32241 31-457): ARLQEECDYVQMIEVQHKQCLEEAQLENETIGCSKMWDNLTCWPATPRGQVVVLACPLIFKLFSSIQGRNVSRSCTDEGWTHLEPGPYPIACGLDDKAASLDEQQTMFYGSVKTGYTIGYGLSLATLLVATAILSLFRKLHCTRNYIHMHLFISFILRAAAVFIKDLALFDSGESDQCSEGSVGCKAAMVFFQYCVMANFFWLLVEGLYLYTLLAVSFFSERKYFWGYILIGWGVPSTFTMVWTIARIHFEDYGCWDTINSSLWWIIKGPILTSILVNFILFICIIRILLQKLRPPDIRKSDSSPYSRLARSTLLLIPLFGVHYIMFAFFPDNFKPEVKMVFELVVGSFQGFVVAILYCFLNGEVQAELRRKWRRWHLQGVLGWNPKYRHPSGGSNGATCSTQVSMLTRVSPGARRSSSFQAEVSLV
Experimental: For this assay, the solutions and equipment include:
Presoak solution: 0.5% Polyethyleneamine in Aqua dest
Buffer for flushing filter plates: 25 mM HEPES pH 7.4
Blocking buffer: 25 mM HEPES pH 7.4; 0.2% protease free BSA
Assay buffer: 25 mM HEPES pH 7.4; 0.5% protease free BSA
Dilution and assay plate: PS-Microplate, U form
Filtration Plate Multiscreen FB Opaque Plate; […] Type B Glasfiber filter
In order to prepare the filter plates, the presoak solution is aspirated by vacuum filtration. The plates are flushed twice with 200 μL flush buffer. 200 μL blocking buffer is added to the filter plate. The filter plate is then incubated with 200 μL presoak solution for 1 hour at room temperature.
The assay plate is filled with 25 μL assay buffer, 25 μL membranes (2.5 μg) suspended in assay buffer, 25 μL agonist in assay buffer, and 25 μL tracer (about 40000 cpm) in assay buffer. The filled plate is incubated for 1 hour with shaking.
The transfer from assay plate to filter plate is conducted. The blocking buffer is aspirated by vacuum filtration and washed two times with flush buffer. 90 μL is transferred from the assay plate to the filter plate. The 90 μL transferred from assay plate is aspirated and washed three times with 200 μL flush buffer. The plastic support is removed. It is dried for 1 hour at 60° C. 30 μL Microscint is added. The count is performed.

[2] = Pharmacokinetic profiles of PEGylated peptides in Fisher 344 rats; format: in vivo, rat; details: 100 μg agonist/kg, plasma RIA, mean N = 3
Experimental: Pharmacokinetic profiles of PEGylated peptides. Healthy Fisher 344 rats (3 animals per group) were injected with 100 μg agonist/kg (agonist amount based on peptide content and dissolved in PBS buffer). Blood samples were drawn 3, 12, 24, 48, 72, 96 and 168 hour post dosing and the peptide content in plasma was analysed by a radio-immunoassay (RIA) directed against the N-terminus of the peptide. PK parameters were then calculated using a model-independent method (WinNonlin Pro, Pharsight Corp., Mountain View, Calif., USA).

Substance | 24 h stab (%) [1] | IC50 (Human VPAC1 Receptor) | further results
C6-HSDAVFTEQY(OMe)TOrnLRAibQVC(PEG40K)AAibOrnyLQSIOrnOrnGGPSSGAPPPS-NH2 [Agonist P478] | 34% |  | 
C6-HSDAVFTEQY(OMe)TOrnLRAibQVAAAibC(PEG40K)YLQSIOrnOrnGGPSSGAPPPS-NH2 (HSDAVFTEQYTXLRXQVAAXCYLQSIXXGGPSSGAPPPS; C6 acyl; PEG40K; non-natural residues; amide; Synthetic sequence PEGylated VPAC2 receptor peptide agonist) [Agonist P460] |  | > 25000 nM | 
C6-HSDAVFTEQY(OMe)TOrnLRAibQLAAAibOrnYLQSIOrnOrnC(PEG40K)GGPSSGAPPPS-NH2 (HSDAVFTEQYTXLRXQLAAXXYLQSIXXCGGPSSGAPPPS; C6 acyl, PEG40K on Cys, C-terminal amide; Synthetic sequence PEGylated VPAC2 receptor agonist) [Agonist P560] | 192% |  | 
C6-HSDAVFTEQY(OMe)TOrnLRAibQVAAAibOrnYLQSC(PEG20K)OrnOrnGGPSSGAPPPC(PEG20K)-NH2 (HSDAVFTEQYTXLRXQVAAXXYLQSCXXGGPSSGAPPPC; C6 acyl, two PEG20K, C-terminal amide; Synthetic sequence PEGylated VPAC2 receptor agonist) [Agonist P503] | 174% |  | 
C6-HSDAVFTEQY(OMe)TOrnLRAibQLAAbuAibOrnYLQSIOrnOrnGGPSSGAPPPC(PEG20K)C(PEG20K)-NH2 (HSDAVFTEQYTXLRXQLAXXXYLQSIXXGGPSSGAPPPCC; C6 acyl, two PEG20K, C-terminal amide; Synthetic sequence PEGylated VPAC2 receptor agonist) [Agonist P523] |  |  | 72 h stab (%) [1]: 281%
C6-HSDAVFTEQY(OMe)TOrnLRK(CO(CH2)2SPEG40K)QVAAAibOrnYLQSIOrnOrnGGPSSGAPPPS-NH2 (HSDAVFTEQYTXLRXQVAAXXYLQSIXXGGPSSGAPPPS; N-terminal C6 acyl, PEG40K on Lys, C-terminal amide; Synthetic sequence PEGylated VPAC2 receptor agonist) [Agonist P485] | 65% |  | 
C6-HSDAVFTEQY(OMe)TOrnLRK(WPEG40K)QVAAAibOrnYLQSIOrnOrnGGPSSGAPPPS-NH2 (HSDAVFTEQYTXLRXQVAAXXYLQSIXXGGPSSGAPPPS; C6 acyl, PEG40K on Lys, C-terminal amide; Synthetic sequence PEGylated VPAC2 receptor agonist) [Agonist P529] |  |  | 72 h stab (%) [1]: 119%
C6-HSDAVFTEQY(OMe)TOrnLRAibQVAAAibK(W-PEG40K)YLQSIOrnOrnGGPSSGAPPPS-NH2 (HSDAVFTEQYTXLRXQVAAXXYLQSIXXGGPSSGAPPPS; C6 acyl; PEG40K; non-natural residues; amide; Synthetic sequence PEGylated VPAC2 receptor peptide agonist) [Agonist P410] |  | > 25000 nM | 
C6-HSDAVFTEQY(OMe)TOrnLRAibQVAAK(CO(CH2)2SPEG40K)OrnYLQSIOrnOrnGGPSSGAPPPS-NH2 (HSDAVFTEQYTXLRXQVAAXXYLQSIXXGGPSSGAPPPS; N-terminal C6 acyl, PEG40K on Lys, C-terminal amide; Synthetic sequence PEGylated VPAC2 receptor agonist) [Agonist P475] | 61% |  | 
C6-HSDAVFTEQY(OMe)TOrnLRAibQVAAAibOrnYLQAibIOrnOrnGGPSSGAPPPC(PEG40K)-NH2 (HSDAVFTEQYTXLRXQVAAXXYLQXIXXGGPSSGAPPPC; C6 acyl, PEG40K on Cys, C-terminal amide; Synthetic sequence PEGylated VPAC2 receptor agonist) [Agonist P509] |  | > 25000 nM | 
C6-HSDAVFTEQY(OMe)TOrnLRAibQVAAAibOrnYLQSIOrnK(WPEG40K)OrnGGPSSGAPPPS-NH2 (HSDAVFTEQYTXLRXQVAAXXYLQSIXXXGGPSSGAPPPS; C6 acyl; PEG40K; non-natural residues; amide; Synthetic sequence PEGylated VPAC2 receptor peptide agonist) [Agonist P454] |  | > 25000 nM | 
C6-HSDAVFTEQY(OMe)TOrnLRAibQVAAAibOrnYLQSK(WPEG40K)OrnOrnGGPSSGAPPPS-NH2 (HSDAVFTEQYTXLRXQVAAXXYLQSXXXGGPSSGAPPPS; C6 acyl, PEG40K on Lys, C-terminal amide; Synthetic sequence PEGylated VPAC2 receptor agonist) [Agonist P535] |  | > 25000 nM | 
C6-HSDAVFTEQY(OMe)TOrnLRK(WPEG40K)QLAAbuAibOrnYLQAibIOrnOrnGGPSSGAPPPS-NH2 (Hexanoyl-HSDAVFTEQ[Tyr(OMe)(3)]T[Orn]LRK(WPEG40K)QLA[Abu][Aib][Orn]YLQ[Aib]I[Orn][Orn]GGPSSGAPPPS-NH2; reading uncertain) [Agonist P557] | 131% |  | 
C6-HSDAVFTEQY(OMe)TOrnLRAibQLAAbuAibOrnYLQAibC(PEG40K)OrnOrnGGPSSGAPPPS-NH2 (HSDAVFTEQYTXLRXQLAXXXYLQXCXXGGPSSGAPPPS; C6 acyl, PEG40K on Cys, C-terminal amide; Synthetic sequence PEGylated VPAC2 receptor agonist) [Agonist P541] |  | > 25000 nM | 
C6-HSDAVFTEQY(OMe)TOrnLRAibQLAAbuAibOrnYLQSC(PEG40K)OrnOrnGGPSSGAPPPS-NH2 (HSDAVFTEQYTXLRXQLAXXXYLQSCXXGGPSSGAPPPS; C6 acyl, PEG40K on Cys, C-terminal amide; Synthetic sequence PEGylated VPAC2 receptor agonist) [Agonist P543] | 119% |  | 
C6-HSDAVFTEQY(OMe)TOrnLRAibQLAAbuAibOrnYLQAibIOrnOrnGGPSSGAPPPC(PEG20K)C(PEG20K)-NH2 (HSDAVFTEQYTXLRXQLAXXXYLQXIXXGGPSSGAPPPCC; C6 acyl, two PEG20K, C-terminal amide; Synthetic sequence PEGylated VPAC2 receptor agonist) [Agonist P517] |  | > 25000 nM | 
C6-HSDAVFTEQY(OMe)TOrnLRAibQVAAAibOrnYLQSIOrnK(CO(CH2)2SPEG20K)OrnGGPSSGAPPPC(PEG20K)-NH2 (HSDAVFTEQYTXLRXQVAAXXYLQSIXXXGGPSSGAPPPC; C6 acyl, two PEG20K, C-terminal amide; Synthetic sequence PEGylated VPAC2 receptor agonist) [Agonist P499] |  | > 25000 nM | AUC0-last [2]: 6650 ng·h/mL; Cl/F [2]: 0.25 mL/min/kg; Cmax [2]: 132 ng/mL; Tmax [2]: 24 h; T½ [2]: 25 h
C6-HSDAVFTEQY(OMe)TOrnLRAibQLAAbuAibOrnYLQSIOrnOrnC(PEG4OK)GGPSSGAPPPS-NH2 (HSDAVFTEQYTXLRXQLAXXXYLQSIXXCGGPSSGAPPPS; C6 acyl, PEG40K on Cys, C-terminal amide; Synthetic sequence PEGylated VPAC2 receptor agonist) [Agonist P566] | 152% |  | 
